The data set deals with the molecule itself. The experiment in a line: SEC-MALS; Superdex 200 Increase 10/300 GL in TBS (20 mM Tris pH 8.0, 100 mM NaCl, 1 mM EDTA, 1 mM DTT); individual proteins or mixture, up to 500 μM. For orientation: In gel filtration, larger molecules generally elute earlier.

As a reminder, the stoichiometry N is a count of units in the complex or per binding partner.

B1: liprin-α2_CC2 (domain or fragment, human, UniProt O75334 259-542, looked up)
chain: GSIDSTDETSQIVELQELLEKQNYEMAQMKERLAALSSRVGEVEQEAETARKDLIKTEEMNTKYQRDIREAMAQKEDMEERITTLEKRYLSAQRESTSIHDMNDKLENELANKEAILRQMEEKNRQLQERLELAEQKLQQTMRKAETLPEVEAELAQRIAALTKAEERHGNIEERMRHLEGQLEEKNQELQRARQREKMNEEHNKRLSDTVDRLLTESNERLQLHLKERMAALEEKNVLIQESETFRKNLEESLHDKERLAEEIEKLRSELDQLKMRTGSLIEP
notes: liprin-α2, human, GenBank AF034799.1, CC2 region, residues 259-542; Dimeric by SEC-MALS at 500 μM; source: E. coli BL21(DE3), purified (Ni-NTA, SEC)
With B1, the “stoichiometry N” value was determined as 2.
